A short description of this series: label from the status in PepcDB records.

From a protein production outcome set (Wang et al. 2014) come the findings set out here.

As to “MTPIPLINIPLCNLAGDGYILSEKSQSQNMLRGIVMSETVRVGLLGYGYASKTFHAPLIAGTAGMELVAVSSSNAEKVHADWANLRVEKDPQALFSDPDIDLIVIPTPNDTHFPLAKQALEAGKHVVVDKPFTVTLSQAYDLGAIAERAGKVLSVFHNRRWDSDFLTLKQLLSAGTLGNVVYMESHFDRFRPEVRQRWREDGSEGSGIWYDLGPHLLDQALELFGLPVAIQVDMAQLRPGSKATDYFHATLIYPQRRVILHASMLVAAASARYTVHGTRGSFVKYGLDPQEDRLKAGERPPLADWGQDKHDGVLTLSRDGITAEQTIATIPGNYPAYYAAVRDALLGKGENPVGVNQAIQVMELIELGLLSHEQKKAVALKNSLEHHHHHH”, the protein production entry is listed as “failed”.

Regarding “MTPLAEDFGAQGDAATRARWMALVEKTLKGQSFDDALTITTADGLTIQPLYTAEDGVAVARDLRARDTDRPWDLRMRAAHPDPIRAAKDVLTDLEGGAASVLLQIDPTGVNGVAIGSADDLGKALSGVLLDLAPVALDAGFLGPKAADWLGALAKAAPNAPLAFHLDPLTAFAQTGVSPGPIESHVFNAATVATRLSATYARASLFLATGRTAHEAGGSNVEELALMTAAALAYAKALVRSGLTIEEAFGRIALGVSLDGEYFTGVAKVRAAKALWARLTESCGVTVAPTIEARSSRRMLAKADAWTNLLRLTSAGFAGAVGGADAIVLDAFTDAIGLPTAFARRQARNTQLVLMEESHLGRVADPAGGAWYLDSLTDQLARAAWASFQAIEAAGGVIKALESGLVADAVAKSRTAQEAAYADKSRKILGVTVFPNADDKPPEVETPDSSAFAVQGPDVRLPGPDSHCPALTPVRFAAAFEGA”, the protein production entry is “failed”.

Consider “MTPLLTAYLQAWKQYFDFSGQTTRDDFWWFMLAHLLITLVVVSIEIATNNPGWLDLFYSLISFIPMLAILVRRLHDTQRSGWWAWLFVIPVIGPFWLIYLLVQPSSSHFTDKALLS”, for which the protein production result is recorded as “failed”.

For the sequence “MTPNAPSTFNNMLLIAVFECRKFLFNLRGMIALIAFALVWGMLLLYPIQGASTLLMQPNIKDLIDGLFGNNALNVLFDWPVAEMAIFWCFALYLFPMFSILIAADQFSSDKTRGTLRFYTIRTSKDSLLFGRFLGQILIQGLLILLTILATIALALSRDASLLLPAISSGALVGVNLLIVILPFTAVMTLLSLYASTARQAMVLATILWTVVSIALLILGNESRLFEGLQWLLPGAQLSNMINTNGLNSLAYAPIPLLQTAIALFLGRIYFQRSQL”, the protein production entry was “failed”.

As to “MTPNEIAAKLSGLATKYHIRDVTLLAGRLLMSFIFLHEGVTLATHFDGAARAMAALGVGLPLFVATIALQLGAGLSVASGLLTRLGGIGLGLFCLATALLFHTNFASQNELLHFEKDLAISGGMFVLAAVGAGRFSLDWLLAGYLQKRQRDKEMARALLAVENQFSVDVQLPV”, the protein production result is “failed”.

With “MTPNNIVSRTEMDNGIQGFYKDKVVFLTGATGFLGKVIIEKLLRTTEVKRIYAMMRPKRGKDIQERLAIWQKDPLFEVLLKAKPDALKRIFVIAGDCLDPDLGINRSDRKLLVSEVHIVIHGAATVRFNEPLHVALAINTRGTRLMLQLAKEMLQLEAYLHISTAFSNCVIFRIEEKFYPEHLTCDANSVLAMSELLSEQMMDKLAPTLVGNFPNTYTYTKALAEDVVLREFGDLPLSIFRPSVIIATHEEPVSGWIDNLYGPIAHIYGVSHGVLRLTTYDKDGYASLVPVDYCANAALASIWQTSKDKSQRNAISQPAIYTLAPSEKNLLLNTDFIKHSLIHRNDFPLTKMIWYPFVHNISNPRIFPLAAFFYHTLPGYFYDLALRLSGRKPRLVKLYRSIHANIAVLEHFMNNSWHFETKSTDRLRVMMSPEDRRLYNFDMETLDWKEYFRKALFGMRLYLTKEPPTQESLEQGRRLFYRWLLIVDACQVIYLI”, the protein production entry is on record as “failed”.

“MTPSAITLCFLIFAILMFALEKLPLAVTAMIVTVGLAVTGVLPAKEAFLGFVDTNVILFVAMFVIGGALFETGMANKIGGVVSRFAKSERQLMVVLMLITGLMSGILSNTGTSAILIPVILGIAMKSDFARSRLLMPMAFASTLGGNLSLIGSPNNLVVQGVLSQTGLKFGFFEYAKIGLPLLIVGILYFVFIGYRFLPQTLNTHVKKQDYHAFHHHHNIIPKWKQWLSLCVLIATLFAMVFEEVIGIKLYISACIGALILVIMRVITEKQAYQAIDSQVVFLFAGTLALADALKRTGAGADIAHSILSLLGDHPSTTALLLTILLLSCLLTNFMSNTATAALLAPIGLSIANSLNADPRAVLMAVVIGSSCAFATPIATPANTMILSVGQYKFTDYTKAGIPLIIISVLLSMLLLPIFFPLFL”: the protein production result is “failed”.

For the sequence “MTPVQLKNYLEQLVGNQIKTSTMIWGPPGIGKSSIVAQIAEEGKLRFIDLRLSQLAPTDLRGLPVAIPTSKTKPQTGTSAWYPPEFLPKDGAGILFLDELNMAPPAMQGVAQQLILDRRVGSYEVPTDWFIWAAGNRKEDRASVFEMPAPLANRFLHLDVQPDFESFKQYALEQKYHEQVIAFLSFRPGLIHKLDLQRPAWPSPRSWAIANGLHQVNLDVSPAVGEGCAAEFSAFVQLYKDLPDLEAIFRGQGQNIGFPTEPSSGYASTIGLAVRAKDATAGVNAFHWLTDKADSEWVQLFVTDMAGQLRRAGHLGALSIMAKKEPKLKQFMQGYQELLAILEHHHHHH”, the protein production result is listed as “not failed”.

Take “MTQMRFTEEDFNTFTIEGLDARMEVLKETVRPKLTALGEHFAPTLSALTGDEMFPHVAKHARRSVNPPADSWVAFANSKRGYKKLPHFQIGLWESHVFVWFAIIYESPIKEEYGKLLEVNQETITKNIPDSFVWSADHTKPGVHKQSEMDKEQLKTLFERLQTVKKAELLCGIQLQKEEVLNMNNQEFLQRIDDAFKQLAFLYRLTQKVTQALEHHHHHH”: the protein production entry is “not failed”.

Turning to “MTQPELTPAQRTEVELLARGRADKSRVLRDLKLPETPEAAHALLLRLGVWDEARTPYADRLRAALNAVELPVPDFDPAEERLDLTHLPTFAIDDEGNQDPDDAVGVEDLGGGLTRLWVHVADVAALVAPDSPLDLEARARGATLYLPDRTIGMLPDELVAKAGLGLHEVSPALSICLDLDPDGNAEAVDVLLTRVKVQRLAYQEAQARLEAGEEPFVTLARLARASRRLREGEGALSIDLPEVRVKADETGASVFPLPKPEMRTVVQECMTLAGWGTAIFADDNEIPLPFATQDYPTREVAGDTLPAMWARRKTLARTRFQPSPGPHHGMGLDLYAQATSPMRRYLDLVVHQQLRAFLAGRDPLSSKVMAAHIAESQMNADATRQAERLSRRHHTLRFIAAQPERVWDAVVVDRRGAQATLLIPDLAFDVQVNTPAAPGTALQVQFADIDLPQMRVRARSVLEHHHHHH”, the protein production entry was “not failed”.

Take “MTQPHQIILLAHGSSDARWCETFEKLAEPTVESIENAAIAYMELAEPSLDTIVNRAKGQGVEQFTVVPLFLAAGRHLRKDVPAMIERLEAEHGVTIRLAEPIGKNPRLGLAIRDVVKEELERSEH”: the protein production result was “not failed”.

Consider “MTQSAPEFKVLQSIAFLAVVLQSSLLYTMNQGNVLLEQSLIMGMLFNLAKFSAPAFIFIVGFHLIRHYTKQLVYKEYISEKATHLLIPYFFWSILYLLTTNDLITLQGGIKSLLLGTAAPHLWYVIMMFQIHLLFPLLCTLFYWFQKRTENKKDIYKYMTFFACLYFLLMWFSSHYIFNGEKLTSSTILHYTDRSFLFYSFYFVMGGIAAVPLKTWRLFVMKHIPLITILFFILFLFINYELFSFYGANSIHLTVSTYLKPSMFLYIVCEIIILYVLSIMIVQRRGFLYKTLRFIGNYTYGAYLAHLFFLQLCTKFLSLFTLQENTILYSLLLFVLTAIISISTMVICSTIPFHTWITGPSPTTKMKWTKVVFRKNHKKLFKPYI”, for which the protein production entry is listed as “failed”.

For the sequence “MTQTTPQPDPSRLRDELVRLHGKASPEWDSLVRLDPRFVDAYLKFAGVPQRRNHLDDKTRAFIALAADACATQLYAPGVARHIERALSFGATREELIEVLELVSTIGIHTSNVGVPVLLEVLEEEGLRKGAPPLDERRQKLKAEFETNRGYWHPTWEGLLELDPDLFEAYVEFSSVPWRTGVLSPKIKEFMYCAFDASATHLYVPGLKLHIRNALRYGATAEELMELLEIVSVTGIHGAELGAPLLEAALKRSGAAAGEPHA”, the protein production result is “not failed”.

Turning to “MTQVRETVSFKAGDVILYPGVPGPRDRAYRVLEGLVRLEAVDEEGNALTLRLVRPGGFFGEEALFGQERIYFAEAATDVRLEPLPENPDPELLKDLAQHLSQGLAEAYRRIERLATQRLKNRMAAALLELSETPLAHEEEGKVVLKATHDELAAAVGSVRETVTKVIGELAREGYIRSGYGKIQLLDLKGLKELAESRGQGR”, the protein production result was “not failed”.
